Positions of bridges follow the written chain, without caps; N, C: chain ends. Non-standard residues stand in square brackets, D forms with d. Residues, ends and D or L forms follow the SMILES beside them. Chains are numbered I, II in the order given. No end group written: not given here. m‑xylene = 1,3-bis[(methylthio)methyl]benzene scaffold from m-xylene dibromide; miniPEG = polyethylene glycol moiety (linker unit); 1Nal = N[C@@H](Cc1cccc2ccccc12)C(=O)O; 2Nal = N[C@@H](Cc1ccc2ccccc2c1)C(=O)O; Bta = N[C@@H](Cc1csc2ccccc12)C(=O)O; Tle = CC(C)(C)[C@H](N)C(=O)O; Dap = NC[C@H](N)C(=O)O; AEEA = NCCOCCOCC(=O)O; βAla = NCCC(=O)O
Columns and labels:
β-catenin = biological target: T1, β-catenin (Homo sapiens, UniProt P35222); experiment: FP-based competition assay for binding to β-catenin; details: IC50; competition with FAM-labeled peptide 1 (10 nM), 50 nM GST-β-catenin; read-out: KD or IC50
T1 construct: cells harboring plasmid pGEX-β-catenin(133-665)52 were grown in LB medium; made in house; host or cells: E. coli BL21 (DE3)
T1 sequence (P35222 133-665): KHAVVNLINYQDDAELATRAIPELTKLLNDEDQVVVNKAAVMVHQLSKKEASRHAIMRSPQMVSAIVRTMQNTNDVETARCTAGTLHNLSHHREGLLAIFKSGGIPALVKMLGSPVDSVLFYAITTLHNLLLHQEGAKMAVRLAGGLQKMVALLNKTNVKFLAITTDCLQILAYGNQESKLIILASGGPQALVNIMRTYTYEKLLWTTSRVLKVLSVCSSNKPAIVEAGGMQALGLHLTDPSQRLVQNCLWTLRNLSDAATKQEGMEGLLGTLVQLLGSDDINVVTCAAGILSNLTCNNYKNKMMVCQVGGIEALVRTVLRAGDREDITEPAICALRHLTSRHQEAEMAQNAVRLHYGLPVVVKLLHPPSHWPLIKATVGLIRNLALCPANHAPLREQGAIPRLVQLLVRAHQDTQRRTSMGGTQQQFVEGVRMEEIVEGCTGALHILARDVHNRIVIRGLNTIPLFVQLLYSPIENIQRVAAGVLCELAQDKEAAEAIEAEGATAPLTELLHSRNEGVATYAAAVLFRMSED
Procedure: Samples were transferred into black-on-black 384-well non-binding microplates (Greiner) and FP was measured using a Tecan M1000 Infinite plate reader. The data were analyzed using GraphPad Prism v. 8.0 and normalized to FP values corresponding to fully bound/unbound probe. All binding values reported are the mean±SD of independent experiments.
Protein Purification. […] Cells were harvested by centrifugation and lysed in lysis buffer (20 mM Tris, pH 8.0, 150 mM NaCl, 2 mM DTT, 1% Triton-X100, 200 mM EDTA, 10 mg/mL PMSF, and 0.2 mg/mL lysozyme) on ice for 20 min, followed by sonication (8 s off, 2 s on, 1 min total, performed twice at 70% amplitude). The homogenate was centrifuged (13,000 g for 30 min at 4° C. and the clear supernatant was loaded onto an equilibrated glutathione-agarose column. After exhaustive washing with wash buffer (20 mM Tris, pH 7.4, 150 mM NaCl, 2 mM DTT), the bound GST-β-catenin was eluted with wash buffer supplemented with 10 mM glutathione, concentrated, and stored at −80° C. in 30% glycerol.

SW480 cells = format: cell-based; details: MTT assay; read-out: EC50, viability / anti-proliferative activity against SW480 cells
Procedure: MTT Assay. SW480 (Wnt-addicted) and MCF7 (Wnt-independent) cells were seeded in 96-well plate with 3×10^3 cells per well, and allowed to grow overnight. […] After that, 10 μL of an MTT stock solution (5 mg/mL) was added into each well and the plate was incubated at 37° C. for 4 h. 100 μL of SDS-HCl solubilizing solution was added and the plate was incubated at 37° C. overnight. The absorbance of the formazan product formed was measured at 570 nm on a Tecan microtiter plate reader. Cells were incubated with serially diluted compounds for 72 hours in the presence of 10% FBS. Data reported represent the mean±SD of 3 independent experiments.
Cell Viability Assay. Cell viability was determined using the MTT assay. […] Trypsin was neutralized with the addition of warm DPBS and cells were pelleted down at 200 g for 5 min at 4° C. […] Com-pounds were serially diluted in DPBS with standardized DMSO concentration (0.5% v/v) and added to each well. […] After that, 10 μL of MTT solution was added to each well, followed by incubation for 4 h at 37° C., 5% CO2. […] The next day, A565 was determined using a Tecan M1000 Infinite plate reader and absorbance values were standardized against cell-free wells and normalized to untreated control cells. Data was analyzed using GraphPad Prism v. […]

GST-β-catenin = biological target: T2, GST-β-catenin (UniProt P35222 133-665); experiment: Table 7, binding to β-catenin; FP competition as for peptides 2-5 presumed
T2 construct: range 133-665; GST fusion purified on glutathione-agarose and used in the FP assays; also called GST-β-catenin(133-665); pGEX-β-catenin(133-665); not shown: glutathione S-transferase (GST) tag encoded by the pGEX plasmid
T2 sequence (looked up): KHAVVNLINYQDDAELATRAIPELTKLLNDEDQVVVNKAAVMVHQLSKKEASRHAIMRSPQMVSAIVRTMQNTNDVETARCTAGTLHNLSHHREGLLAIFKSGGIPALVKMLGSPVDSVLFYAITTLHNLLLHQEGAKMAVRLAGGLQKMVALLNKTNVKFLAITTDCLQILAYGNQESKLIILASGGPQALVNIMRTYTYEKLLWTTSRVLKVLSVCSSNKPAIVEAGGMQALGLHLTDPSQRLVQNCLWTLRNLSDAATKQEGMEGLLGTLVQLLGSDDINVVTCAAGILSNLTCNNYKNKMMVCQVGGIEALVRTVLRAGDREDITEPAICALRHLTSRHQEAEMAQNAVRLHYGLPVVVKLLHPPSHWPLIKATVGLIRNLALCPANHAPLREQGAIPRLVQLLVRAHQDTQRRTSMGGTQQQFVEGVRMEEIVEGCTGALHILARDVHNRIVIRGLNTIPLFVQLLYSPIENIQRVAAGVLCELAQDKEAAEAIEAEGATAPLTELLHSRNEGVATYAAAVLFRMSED

In the case of `CC[C@H](C)[C@@H]1NC(=O)[C@@H](NC(=O)[C@H](CCC(=O)O)NC(=O)[C@@H]2CCCN2C(=O)[C@H](Cc2ccc(O)cc2)NC(C)=O)CC(=O)NCCCC[C@@H](C(=O)N[C@@H](Cc2c[nH]cn2)C(=O)N[C@@H](CC(C)C)C(=O)N[C@@H](CCC(N)=O)C(=O)N[C@@H](CCCNC(=N)N)C(=O)N[C@H](C(=O)N[C@@H](Cc2csc3ccccc23)C(=O)N[C@H](CCCNC(=N)N)C(=O)NCCOCCOCC(=O)NCCOCCOCC(=O)N[C@@H](CN)C(N)=O)C(C)(C)C)NC(=O)[C@H](CC(=O)O)NC(=O)[C@H](CC(C)C)NC1=O` [Peptide 27, Ac-YPEDILDKHLQRZ(3-Bta)(dR)-(miniPEG)2-Dap-NH2] (Ac-YPEDILDKHLQR[Tle][Bta][dR][AEEA][AEEA][Dap]-NH2; lactam 4-8), the IC50 (β-catenin) is reported as 41 nM.

`CC[C@H](C)[C@@H]1NC(=O)[C@@H](NC(=O)[C@H](CCC(=O)O)NC(=O)[C@@H]2CCCN2C(=O)[C@H](Cc2ccc(O)cc2)NC(C)=O)CC(=O)NCCCC[C@@H](C(=O)N[C@@H](Cc2c[nH]cn2)C(=O)N[C@@H](CC(C)C)C(=O)N[C@@H](CCC(N)=O)C(=O)N[C@@H](CCCNC(=N)N)C(=O)N[C@H](C(=O)N[C@@H](Cc2csc3ccccc23)C(=O)N[C@@H](CCCNC(=N)N)C(=O)NCCOCCOCC(=O)NCCOCCOCC(=O)N[C@@H](CN)C(N)=O)C(C)(C)C)NC(=O)[C@H](CC(=O)O)NC(=O)[C@H](CC(C)C)NC1=O` [Peptide 26, Ac-YPEDILDKHLQRZ(3-Bta)R-(miniPEG)2-Dap-NH2] (Ac-YPEDILDKHLQR[Tle][Bta]R[AEEA][AEEA][Dap]-NH2; lactam 4-8) gave an IC50 (β-catenin) of 37 nM.

Work on `CC[C@H](C)[C@@H]1NC(=O)[C@@H](NC(=O)[C@H](CCC(=O)O)NC(=O)[C@@H]2CCCN2C(=O)[C@H](Cc2ccc(O)cc2)NC(=O)CNC(=O)CNC(C)=O)CC(=O)NCCCC[C@@H](C(=O)N[C@@H](Cc2c[nH]cn2)C(=O)N[C@@H](CC(C)C)C(=O)N[C@@H](CCC(N)=O)C(=O)N[C@@H](CCCNC(=N)N)C(=O)N[C@H](C(=O)N[C@H](C(=O)N[C@@H](CC(C)C)C(=O)NCCOCCOCC(=O)NCCOCCOCC(=O)N[C@@H](CNC(=O)CC[C@@H]2NC(=O)[C@@H](CCCNC(=N)N)NC(=O)[C@H](CCCNC(=N)N)NC(=O)[C@@H](CCCNC(=N)N)NC(=O)[C@H](CCCNC(=N)N)NC(=O)[C@H](Cc3ccc4ccccc4c3)NC(=O)[C@@H](Cc3ccccc3)NC2=O)C(N)=O)[C@@H](C)CC)C(C)C)NC(=O)[C@H](CC(=O)O)NC(=O)[C@H](CC(C)C)NC1=O` [peptide 2] (I: Ac-GGYPEDILDKHLQRVIL[AEEA][AEEA][Dap]-NH2 / II: cyclo([2Nal]R[dR]R[dR]E[dF]); lactam I:6-I:10; amide I:20-II:6) yielded an EC50 (SW480 cells) of 3700 nM.

B1: Peptide 12 (peptide)
peptide: Ac-GGYPEDILDKHLQR[Tle][1Nal]L-NH2
modifications: lactam 6-10
notes: also called Ac-GGYPEDILDKHLQRZ(1-Nal)L-NH2
For B1, the IC50 (GST-β-catenin) was 175 nM.

B2: Peptide 15 (peptide)
peptide: XXRXRXQGGYPEDILDKHLQRXXL
modifications: not fully specified; N-terminal CPP9-(miniPEG)2; Asp-Lys staple; Z = tert-leucine; 2-Nal = 2-napthylalanine; C-terminal amide
notes: also called CPP9-(miniPEG)2-GGYPEDILDKHLQRZ(2-Nal)L-NH2
B2 was tested, and the IC50 (GST-β-catenin) was 79.4 nM.

With Ac-YPEDILDKHLQSV[Bta][dS][miniPEG][miniPEG][Dap]-NH2 (lactam 4-8) [Peptide 23] the IC50 (GST-β-catenin) was 565 nM.

B3: Peptide 11 (peptide)
peptide: Ac-GGYPEDILDKHLQR[Tle][Bta]L-NH2
modifications: lactam 6-10
notes: also called Ac-GGYPEDILDKHLQRZ(3-Bta)L-NH2
Molecule B3 has an IC50 (GST-β-catenin) of 65 nM.

B4: Peptide 16 (peptide)
peptide: Ac-GG[Bta]PEDILDKHLQR[Tle][Bta]L-NH2
modifications: lactam 6-10
SMILES: CC[C@H](C)[C@@H]1NC(=O)[C@@H](NC(=O)[C@H](CCC(=O)O)NC(=O)[C@@H]2CCCN2C(=O)[C@H](Cc2csc3ccccc23)NC(=O)CNC(=O)CNC(C)=O)CC(=O)NCCCC[C@@H](C(=O)N[C@@H](Cc2c[nH]cn2)C(=O)N[C@@H](CC(C)C)C(=O)N[C@@H](CCC(N)=O)C(=O)N[C@@H](CCCNC(=N)N)C(=O)N[C@H](C(=O)N[C@@H](Cc2csc3ccccc23)C(=O)N[C@@H](CC(C)C)C(N)=O)C(C)(C)C)NC(=O)[C@H](CC(=O)O)NC(=O)[C@H](CC(C)C)NC1=O
notes: also called Ac-GG(3-Bta)PEDILDKHLQRZ(3-Bta)L-NH2
B4 showed an IC50 (GST-β-catenin) of 97.9 nM.

B5: Peptide 28 (peptide)
peptide: Ac-YPEDILDKHLQRV[Tle]L[miniPEG][miniPEG][Dap]-NH2
modifications: lactam 4-8
notes: also called Ac-YPEDILDKHLQRVZL-(miniPEG)2-Dap-NH2
With B5 the IC50 (GST-β-catenin) was 306 nM.

Ac-YPEDILDKHLQSV[Bta]T[miniPEG][miniPEG][Dap]-NH2 (lactam 4-8) [Peptide 19] showed an IC50 (GST-β-catenin) of 382 nM.

Ac-YPEDILDKHLQEV[Bta]T[miniPEG][miniPEG][Dap]-NH2 (lactam 4-8) [Peptide 20] gave an IC50 (GST-β-catenin) of 1800 nM.

In the case of Ac-YPEDILDKHLQQV[Bta]T[miniPEG][miniPEG][Dap]-NH2 (lactam 4-8) [Peptide 21], the IC50 (GST-β-catenin) is reported as 328 nM.

Ac-GGYPEDILDKHLQR[Tle]WL-NH2 (lactam 6-10, also called Ac-GGYPEDILDKHLQRZWL-NH2) [Peptide 10] was tested, and the IC50 (GST-β-catenin) was 71 nM.

Molecule Ac-GGYPEDILDKHLQRVIL-NH2 (lactam (positions not given here); not fully specified) [Peptide 6] has an IC50 (GST-β-catenin) of 245 nM.

B6: Peptide 18 (peptide)
peptide: Ac-GGYPEDILDKHLQR[Tle][Bta]L[AEEA][AEEA][Dap][dF][2Nal]R[dR]R[dR]Q
modifications: lactam 6-10; bridge (positions not given here); not fully specified (bridges); numbers in words are those of the source; also: cCPP9 ring hung on Dap18 side chain via Gln25 side chain, no backbone bond Dap18-X19
notes: also called Ac-GGYPEDILDKHLQRZ(3-Bta)L-(miniPEG)2-Dap(CPP9)
B6 was tested, and the IC50 (GST-β-catenin) was 104 nM.

In the case of YPEDILDKHLQRXIL (N-terminal acetyl; Asp-Lys staple; Hvl = β-hydroxyvaline; C-terminal amide) [Peptide 37], the IC50 (GST-β-catenin) is reported as 154 nM.

With Ac-YPEDILDKHLQ[dE]V[Bta]T[miniPEG][miniPEG][Dap]-NH2 (lactam 4-8) [Peptide 22] the IC50 (GST-β-catenin) was 3500 nM.

B7: Peptide 13 (peptide)
peptide: Ac-GGYPEDILDKHLQR[Tle][2Nal]L-NH2
modifications: lactam 6-10
notes: also called Ac-GGYPEDILDKHLQRZ(2-Nal)L-NH2
B7 showed an IC50 (GST-β-catenin) of 86 nM.

With Ac-GGYPEDILDKHLQCVILC[βAla]-NH2 (lactam 6-10; linker 14-18 via m‑xylene, Double stapled peptide) [Peptide 8] the IC50 (GST-β-catenin) was 525000 nM.

B8: Peptide 7 (peptide)
peptide: Ac-GGYPECILDCKHLQDVILK[βAla]-NH2
modifications: lactam (positions not given here); linker 6-10 via m‑xylene; not fully specified; also: Asp-Lys staple, places not given here (residues shown as images)
notes: Double stapled peptide
For B8, the IC50 (GST-β-catenin) was 3200 nM.

B9: Peptide 14 (peptide)
peptide: XXRXRXQGGYPEDILDKHLQRXXL
modifications: not fully specified; N-terminal CPP9-(miniPEG)2; Asp-Lys staple; Z = tert-leucine; 3-Bta = 3-benzothienyl-l-alanine; C-terminal amide
notes: also called CPP9-(miniPEG)2-GGYPEDILDKHLQRZ(3-Bta)L-NH2
For B9, the IC50 (GST-β-catenin) was 63.5 nM.
